The values that follow come from patent US20240325556A1, “Methods of Using Antibody-Drug-Conjugates” (priority 2021, published 2024).

Read-outs that look alike come from different tables or passages of the source. Square brackets hold non-standard residues; d marks the D form. Peptide text beside a SMILES is read from it. * marks the point of attachment. Dolaproine = CO[C@@H]([C@@H]1CCCN1)[C@@H](C)C(=O)O; Dil = CC[C@H](C)[C@H](NC)[C@@H](CC(=O)O)OC; X1 = C[C@@H](N*)[C@@H](O)c1ccccc1; NMeV = CN[C@H](C(=O)O)C(C)C

By IC50 is commonly meant the concentration that inhibits the measured activity by half.

For one series, the system named is Male Sprague-Dawley rats. The experiment in a line: Non-GLP rat toxicology study of nectin-4 ADCs. It is filed as in vivo. To be noted: 4 doses. As for the experimental part: (§1) Male Sprague-Dawley rats (8-9 wk old at study start, 5 animals/group) were dosed intravenously with either vehicle alone or with nectin-4 conjugates made using antibodies carrying the variable regions of the rat cross-reactive antibody, enfortumab. The tested ADCs were nectin-4 vedotin (dosed at 10 mg/kg), and nectin-4 CH1/CT RED-106 (dosed at either 10 or 20 mg/kg). Dosing occurred weekly for a total of 4 doses (days 1, 8, 15, and 22). […] Body weights were recorded four times/week. Blood was collected from all animals for clinical pathology on days 5, 12, 19, and 26, and for toxicokinetic analysis at 8 h and days 4 and 7 post-dose (for all doses). Clinical observations were conducted daily.
Methods: Rat cross-reactive nectin-4 ADCs carrying either RED-106 or vedotin linker-payloads were prepared (DAR depicted in FIGS. 8A-8D) and tested in a rat toxicity study.

The conditions of series [1]: 10 mg/kg weekly for four doses; cited from earlier work.
Series [2] in a line: Toxicokinetic analysis of rat plasma samples (total antibody and total ADC ELISA). The format is in vivo. Conditions: repeat dose toxicity study, listed as RED-106 conjugate. As to the method: as §1
Methods: Total antibody and total ADC concentrations were quantified by ELISA as previously described and diagrammed in the figure. For total antibody, conjugates were captured with an anti-human IgG-specific antibody and detected with an HRP-conjugated anti-human Fc-specific antibody. For total ADC, conjugates were captured with an anti-human Fab-specific antibody and detected with a mouse anti-maytansine primary antibody, followed by an HRP-conjugated anti-mouse IgG-subclass 1-specific secondary antibody. Bound secondary antibody was detected using Ultra TMB One-Step ELISA substrate (Thermo Fisher). […] Data were analyzed using GraphPad Prism and Microsoft Excel software.
Background: An ELISA detects its analyte on a solid surface through an enzyme-linked reagent.

For another series, the system named is NCI-H1781 cells. The experiment in a line: In vitro cytotoxicity assay against nectin-4-expressing cell line NCI-H1781. It is filed as cell-based. To be noted: for IC50: NCI-H1781 cells, 5 days incubation, CellTiter-Glo viability, read-out: Absolute IC50. As for the experimental part:
Cell lines were plated on Day −1 in 96-well plates (Corning #3603) at a density of 4×10^3 cells/well in 100 μL of growth media and cultured overnight. On Day 0, serial dilution of test samples was performed in growth media at 6× the final concentration and 20 μL was added to the cells. After incubation at 37° C. with 5% CO2 for 5 days, viability was measured using Promega CellTiter-Glo® according to the manufacturer's recommendations.
Methods: Free payloads (MMAE and camptothecin) and nectin-4 ADCs carrying either MMAE, camptothecin, or maytansine were produced and tested in an in vitro cytotoxicity assay against the nectin-4-expressing cell line, NCI-H1781 (FIG. 1).
Background: In ATP-based viability assays light output follows the ATP content of the culture.

The conditions of series [3]: preclinical and clinical effects; cited from earlier work.

On to “nectin-4 vedotin: nectin-4 conjugate with enfortumab variable regions, untagged antibody conjugated with maleimide-valcit-MMAE [reference compound]”, for which the “Clinical signs of toxicity in fur and skin” value in the series with Male Sprague-Dawley rats (10 mg/kg i.v. weekly) is “all animals exhibited clinical signs of toxicity in fur and skin”. In addition, in the series with Male Sprague-Dawley rats (10 mg/kg i.v. weekly, 5 animals/group), the “Animals euthanized in distress” value was 1 animal. Further, in series [1], the “Toxicity noted in previous reports” value is “fur and skin toxicity and mortality”.

Consider “Nectin-4 CH1/CT RED-106: nectin-4 ADC with variable regions of enfortumab, CH1/CT aldehyde-tagged, carrying RED-106 maytansine linker-payload”, for which the “In vivo stability of the conjugate compared with the vedotin ADC” value in series [2] is given as “improved in vivo stability”. Moreover, in the series on Male Sprague-Dawley rats (10 or 20 mg/kg i.v. weekly), the Mortality entry was “no mortalities” and the “Signs of fur/skin toxicity compared with vedotin conjugate” value is given as “fewer signs of fur/skin toxicity”. For the same molecule, the IC50 in the series on NCI-H1781 cells is 1 nM. Also, the “In vitro potency of RED-106 conjugate compared with MMAE conjugate” value in the series with NCI-H1781 cells (NCI-H1781 target cell line) is “similar”.

`N.N.[Cl][Pt][Cl]` [Cisplatin]: the IC50 in the series with NCI-H1781 cells stood at 230 nM.

Regarding `CC[C@@]1(O)C(=O)OCc2c1cc1n(c2=O)Cc2cc3ccccc3nc2-1` [Free Camptothecin, camptothecin], in the series with NCI-H1781 cells (120 h), the IC50 came to 1 nM.

For `CC[C@H](C)[C@@H]([C@@H](CC(=O)N1CCC[C@H]1[C@H](OC)[C@@H](C)C(=O)N[C@H](C)[C@@H](O)c1ccccc1)OC)N(C)C(=O)[C@@H](NC(=O)[C@@H](NC)C(C)C)C(C)C` [Free MMAE, monomethyl auristatin E] (H-[NMeV]V[Dil][Dolaproine]-X1), the IC50 with NCI-H1781 cells amounted to 0.3 nM.

B1: DS-1062 (conjugate, chains of the INN, looked up)
VH: QVQLVQSGAEVKKPGASVKVSCKASGYTFTTAGMQWVRQAPGQGLEWMGWINTHSGVPKYAEDFKGRVTISADTSTSTAYLQLSSLKSEDTAVYYCARSGFGSSYWYFDVWGQGTLVTVSS
VL: DIQMTQSPSSLSASVGDRVTITCKASQDVSTAVAWYQQKPGKAPKLLIYSASYRYTGVPSRFSGSGSGTDFTLTISSLQPEDFAVYYCQQHYITPLTFGQGTKLEIK
modifications: deruxtecan payload
With B1, the “Toxicity noted in previous reports” value in series [3] is “skin and mucosal toxicity”.
